The chains are these.
T1: anti-CLDN-5 ECR mAb clone 1B3
T1 chain 1: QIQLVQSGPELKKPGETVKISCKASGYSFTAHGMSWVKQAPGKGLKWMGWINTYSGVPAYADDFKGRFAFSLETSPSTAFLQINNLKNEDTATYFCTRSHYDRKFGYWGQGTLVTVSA
T1 chain 2: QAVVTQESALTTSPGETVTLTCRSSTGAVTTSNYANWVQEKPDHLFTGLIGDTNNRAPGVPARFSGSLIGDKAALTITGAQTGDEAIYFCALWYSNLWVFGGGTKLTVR

B1: AGIA-tagged human CLDN-5, cell-free synthesized proteoliposome, O00501 Q156A (protein)
chain: MGSAALEILGLVLCLVGWGGLILACGLPMWQVTAFLDHNIVTAQTTWKGLWMSCVVQSTGHMQCKVYDSVLALSTEVQAARALTVSAVLLAFVALFVTLAGAQCTTCVAPGPAKARVALTGGVLYLFCGLLALVPLCWFANIVVREFYDPSVPVSAKYELGAALYIGWAATALLMVGGCLLCCGAWVCTGRPDLSFPVKYSAPRRPTATGDYDKKNYV
B2: AGIA-tagged human CLDN-5, cell-free synthesized proteoliposome, O00501 E146A (protein)
chain: B1 chain with E146A, A156Q
B3: AGIA-tagged human CLDN-5, cell-free synthesized proteoliposome, O00501 D149A (protein)
chain: B1 chain with D149A, A156Q
B4: AGIA-tagged human CLDN-5, cell-free synthesized proteoliposome, O00501 S155A (protein)
chain: B1 chain with S155A, A156Q
B5: AGIA-tagged human CLDN-5, cell-free synthesized proteoliposome, O00501 F147A (protein)
chain: B1 chain with F147A, A156Q
B6: AGIA-tagged human CLDN-5, cell-free synthesized proteoliposome, O00501 P153A (protein)
chain: B1 chain with P153A, A156Q
B7: AGIA-tagged human CLDN-5, cell-free synthesized proteoliposome, O00501 S151A (protein)
chain: B1 chain with S151A, A156Q
B8: AGIA-tagged human CLDN-5, cell-free synthesized proteoliposome, O00501 Y148A (protein)
chain: B1 chain with Y148A, A156Q
B9: AGIA-tagged human CLDN-5, cell-free synthesized proteoliposome, O00501 V154A (protein)
chain: B1 chain with V154A, A156Q
B10: AGIA-tagged human CLDN-5, cell-free synthesized proteoliposome, O00501 P150A (protein)
chain: B1 chain with P150A, A156Q
B11: AGIA-tagged human CLDN-5, cell-free synthesized proteoliposome, O00501 V152A (protein)
chain: B1 chain with V152A, A156Q

Results on eleven molecules are retold here after PMC5976803.

Numbering of substitutions follows the chain as printed. In names and notes the source's numbering stands.

Chain of anti-CLDN-5 ECR mAb clone 2B12 (chain, as listed by the source, chain 1 of 2): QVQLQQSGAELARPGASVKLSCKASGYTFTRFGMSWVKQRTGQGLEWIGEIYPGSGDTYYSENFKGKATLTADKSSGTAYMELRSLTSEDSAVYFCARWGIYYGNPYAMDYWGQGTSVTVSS
Chain of anti-CLDN-5 ECR mAb clone 2B12 (chain, as listed by the source, chain 2 of 2): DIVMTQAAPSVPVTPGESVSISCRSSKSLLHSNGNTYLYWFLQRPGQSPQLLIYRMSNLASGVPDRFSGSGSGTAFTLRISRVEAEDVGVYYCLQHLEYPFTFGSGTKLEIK
Chain of anti-CLDN-5 ECR mAb clone 2B1 (chain, as listed by the source, chain 1 of 2): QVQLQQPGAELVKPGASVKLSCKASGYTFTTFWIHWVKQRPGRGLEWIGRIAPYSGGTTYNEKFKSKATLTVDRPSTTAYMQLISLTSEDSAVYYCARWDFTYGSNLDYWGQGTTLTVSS
Chain of anti-CLDN-5 ECR mAb clone 2B1 (chain, as listed by the source, chain 2 of 2): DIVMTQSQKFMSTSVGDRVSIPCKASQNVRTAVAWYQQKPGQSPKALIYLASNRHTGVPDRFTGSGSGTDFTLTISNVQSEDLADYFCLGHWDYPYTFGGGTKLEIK

One assay has as its target anti-CLDN-5 ECR mAb clone 2B1. The experiment in a line: proteoliposome ELISA. The settings on record: chain shown with the change;; parent: est. 1.0; read off a plot. On the technique in general: In an ELISA, binding on a coated surface is turned into a signal by an enzyme label.
As for B1, the ratio to parent turned out to be 0.55.

For B2, the ratio to parent worked out at 0.25.

B3: the ratio to parent is 0.11.

On to B4, for which the ratio to parent amounted to 0.84.

Consider B5, for which the ratio to parent stood at 1.1.

As for B6, the ratio to parent is 0.14.

Turning to B7, the ratio to parent amounted to 0.14.

In the case of B8, the ratio to parent was 1.1.

B9: the ratio to parent amounted to 1.1.

Take B10: the ratio to parent came to 0.27.

For B11, the ratio to parent worked out at 1.2.

The target in another assay is T1, anti-CLDN-5 ECR mAb clone 1B3. The experiment in a line: proteoliposome ELISA. Conditions: chain shown with the change;; parent: est. 1.0; read off a plot.
Turning to B1, the ratio to parent came out at 1.2.

Turning to B2, the ratio to parent worked out at 0.49.

For B3, the ratio to parent came out at 0.17.

For the molecule B4, the ratio to parent amounted to 1.3.

Regarding B5, the ratio to parent stood at 2.4.

On to B6, for which the ratio to parent was 0.19.

For the molecule B7, the ratio to parent came out at 0.75.

Take B8: the ratio to parent was determined as 0.17.

Consider B9, for which the ratio to parent was 1.2.

Regarding B10, the ratio to parent was determined as 1.8.

In the case of B11, the ratio to parent was determined as 0.25.

A further assay concerns the target anti-CLDN-5 ECR mAb clone 2B12. Kind of assay: proteoliposome ELISA. The settings on record: chain shown with the change;; parent: est. 1.0; read off a plot.
Consider B1, for which the ratio to parent stood at 0.94.

As to B2, the ratio to parent is 0.36.

Regarding B3, the ratio to parent amounted to 0.03.

Take B4: the ratio to parent was determined as 0.99.

As to B5, the ratio to parent was 1.3.

B6: the ratio to parent came to 0.08.

For B7, the ratio to parent worked out at 0.03.

As for B8, the ratio to parent stood at 0.75.

In the case of B9, the ratio to parent is 0.87.

In the case of B10, the ratio to parent is 0.13.

As for B11, the ratio to parent was 0.39.

A further assay deals with anti-CLDN-5 ECR mAb clone 1D1. Kind of assay: proteoliposome ELISA. The settings on record: chain shown with the change;; parent: est. 1.0; read off a plot.
Chain of anti-CLDN-5 ECR mAb clone 1D1 (chain, as listed by the source, chain 1 of 2): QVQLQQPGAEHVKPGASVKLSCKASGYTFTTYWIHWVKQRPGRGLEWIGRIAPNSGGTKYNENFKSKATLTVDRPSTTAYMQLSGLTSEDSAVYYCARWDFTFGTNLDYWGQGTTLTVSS
Chain of anti-CLDN-5 ECR mAb clone 1D1 (chain, as listed by the source, chain 2 of 2): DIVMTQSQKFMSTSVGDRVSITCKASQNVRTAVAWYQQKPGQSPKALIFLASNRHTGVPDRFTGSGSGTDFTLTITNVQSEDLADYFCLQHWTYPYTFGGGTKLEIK
In the case of B1, the ratio to parent is 0.88.

Consider B2, for which the ratio to parent was determined as 0.26.

In the case of B3, the ratio to parent amounted to 0.06.

On to B4, for which the ratio to parent came out at 0.86.

Turning to B5, the ratio to parent is 1.5.

Regarding B6, the ratio to parent was 0.13.

Take B7: the ratio to parent amounted to 0.1.

On to B8, for which the ratio to parent was 1.3.

Take B9: the ratio to parent turned out to be 1.3.

For the molecule B10, the ratio to parent came to 0.26.

With B11, the ratio to parent turned out to be 1.6.
